Reference: patent US9205136B2, “Human aminoacyl-tRNA synthetase polypeptides useful for the regulation of angiogenesis” (THE SCRIPPS RESEARCH INSTITUTE, priority 2000, dated 2015)
Entries after “also recorded” stand apart in the source; their conditions may differ.

Experiments:
[1] = test system: MPs; assay: MP chemotaxis assay (ChemoTX microchemotaxis chamber); format: cell-based, human; details: sample proteins 1 nM, 3 hours
Procedure: (§1) Cells for the various cytokine assays described were prepared from acid citrate dextrose-treated blood of normal healthy volunteers. Human PMNs were isolated from the blood by centrifugation (700×g) over Histopaque 1077 and 1119 (Sigma). […] This procedure was repeated twice. Human MPs were isolated by centrifugation on Histopaque 1077 (Sigma). The mononuclear fraction was obtained, washed twice in Hanks' balanced salt solution, resuspended in RPMI-1640 medium (Sigma) containing 10% heat-inactivated fetal bovine serum (Sigma), plated in tissue culture flasks, and incubated in a 6% CO2 incubator at 37° C. for 1-2 hours (Kumagai et al., 1979, J. Immunol. Methods 29:17-25). Nonadherent cells were removed by washing the flasks three times with Hanks' balanced salt solution, and adherent cells were harvested by incubation with calcium-magnesium free phosphate-buffered saline containing 2 mM EDTA for 15 minutes at 4° C., followed by extensive washing.
MP chemotaxis assays were performed in a ChemoTX microchemotaxis chamber (Neuro Probe, Gaithersburg, Md.) containing polycarbonate filters (5 μm pores) with polyvinylpyrrolidone (PVP). MPs were suspended in RPMI-1640 medium containing 1% heat-inactivated fetal bovine serum, and 10^4 cells were added to the upper chamber. Sample proteins (1 nM) were added to the lower compartment of chemotaxis chambers, and the chambers were incubated for 3 hours. After incubation, nonmigrating cells were removed, membranes were fixed in methanol, and migrating cells were visualized with the HEMACOLOR™ stain set (EM Diagnostic Systems, Gibbstown, N.J.). Migrating cells were counted in high-power fields (HPFs). Each determination shown in FIG. 2 represents the average of nine HPF measurements.

[2] = test system: MPs; assay: MP TNFα production (ELISA of culture supernatant); format: cell-based, human; details: 1 nM sample protein, 14 hours
Procedure: as §1
MP TNFα production was examined following incubation of 10^5 MPs with 1 nM of sample protein for 14 hours. Aliquots of the culture supernatant were then assayed for TNFα production using a TNFα enzyme-linked immunosorbent assay kit (Sigma). Each determination shown in FIG. 2 represents the mean of four measurements from at least three independent experiments.

[3] = test system: MPs; assay: MP tissue factor production (Factor VIIa-dependent Factor Xa formation); format: cell-based, human; details: 1 nM sample protein, 4 hours
Procedure: as §1
MP tissue factor production was examined following incubation of 10^4 MPs with 1 nM of sample protein for 4 hours. Tissue factor activity was then inferred from measurements of Factor VIIa-dependent Factor Xa formation (Wolfson et al., 1990 J. Chromatogr., 503:277-81). Each determination shown in FIG. 2 represents the mean of four measurements from at least three independent experiments.

[4] = test system: PMNs; assay: PMN release of myeloperoxidase; format: cell-based, human; details: 1 nM sample protein, 60 minutes
Procedure: as §1
PMN release of myeloperoxidase was examined following incubation of 3×10^6 PMNs per mL with 1 nM of sample protein for 60 minutes. The generation of peroxidase was then measured by the reduction of 3,3′,5,5′-tetramethylbenzidine (Barker et al., 1982, FEBS Lett. 150:419-23). Peroxidase activity is shown in FIG. 3 as the percent of total peroxidase activity where 100% peroxidase activity is defined as the activity observed for 3×10^6 PMNs following exposure to 10 μM phorbol ester for 60 minutes. Each determination shown in FIG. 3 represents the mean of four measurements from at least three independent experiments.

[5] = test system: PMNs; assay: PMN chemotaxis assay (ChemoTX microchemotaxis chamber); format: cell-based, human; details: for PMN chemotaxis (PMN migration): sample proteins 1 nM, 45 min
Procedure: as §1
PMN chemotaxis assays were performed in a ChemoTX microchemotaxis chamber (described herein). Sample proteins (1 nM) were added to the lower compartment of chemotaxis chambers, and 10^4 PMNs were added to the upper compartment. Chambers were incubated for 45 min, and migrating cells were counted in HPFs. Each determination shown in FIG. 2 represents the average of nine HPF measurements.

[6] = test system: PMNs; assay: 125I-human mini TyrRS binding and competition assay on PMNs; details: 10 nM 125I-mini TyrRS, 200-fold molar excess of unlabeled ligand, on ice 2 hours
Procedure: The interaction of human mini TyrRS and PMNs was examined in binding studies using radioiodinated TyrRS molecules (Moser et al., 1993, J. Biol. Chem. 268:7125-28). Custom radioiodination of mini TyrRS with was performed by Research & Diagnostic Antibody (Richmond, Calif.). In the binding assays, 2×10^6 PMNs were first suspended in 120 μl of RPMI-1640 medium containing 20 mM Hepes (pH 7.4) and 10 mg/ml bovine serum albumin. […] Following incubation, cells were separated from unbound radioactivity by centrifugation at approximately 8000×g for 2 minutes through 500 μL, of a 10% sucrose/phosphate-buffered saline (PBS) cushion. The supernatant was aspirated, and the cell sediment was resuspended using EcoLite (ICN Biomedicals, Irvine, Calif.) and analyzed in a scintillation counter.
Following incubation, cells were separated from unbound radioactivity as described herein.

[7] = test system: human umbilical vein endothelial cells (HUVECs); assay: HUVEC migration assay (modified Boyden chamber); format: cell-based; details: 50 nM TyrRS molecule or 0.5 nM VEGF165, 6 hours
Procedure: In contrast, α-chemokines lacking the ELR motif act as angiostatic factors (id.). In order to evaluate the angiogenic activity of TyrRS, which contains the ELR motif, human full-length TyrRS and human mini TyrRS were first examined for their ability to induce endothelial cell migration. Such angiogenic assays were performed using human umbilical vein endothelial cells (HUVECs) (Clonetics, Walkersville, Md.). Cells were maintained in EGM-2® BULLETKIT® medium (Clonetics) in an atmosphere of 6% CO2 at 37° C. according to the supplier's instructions.
Cell migration assays were performed using the modified Boyden chamber (6.5 mm Transwells) with polycarbonate membranes (8.0 μm pore size) (Costar Corp., Cambridge, Mass.) (Masood et al., 1999, Blood 93:1038-44). Wells were coated overnight with 25 μg/mL human fibronectin (Biosource International, Camarillo, Calif.) in PBS and then allowed to air-dry. HUVECs were suspended in Dulbecco's modified Eagle's medium (DMEM) (Gibco-BRL, Gaithersburg, Md.) containing 0.1% BSA (Sigma) and 2×10^5 cells per well were added to the upper chamber. The chemotactic stimulus (50 nM of a given TyrRS molecule or 0.5 nM of human vascular endothelial growth factor-165 (VEGF165) (Biosource International, Camarillo, Calif.)) was placed in the lower chamber, and the cells were allowed to migrate for 6 hours at 37° C. in a 6% CO2 incubator. After incubation, non-migrant cells were removed from the upper face of the Transwell membrane with a cotton swab and migrant cells, those attached to the lower face, were fixed in methanol and visualized with the HEMACOLOR® stain set (EM Diagnostic Systems, Gibbstown, N.J.). Migrating cells were counted in high-power fields (HPFs). HUVECs were suspended in media with the inhibitor for 30 minutes before placement in the chamber. Each determination shown in FIG. 16 represents the average of nine HPF measurements.

B1: full-length TyrRS: recombinant human tyrosyl-tRNA synthetase, 528 amino acid residues, C-terminal His6 tag (protein)
chain: MGDAPSPEEKLHLITRNLQEVLGEEKLKEILKERELKIYWGTATTGKPHVAYFVPMSKIADFLKAGCEVTILFADLHAYLDNMKAPWELLELRVSYYENVIKAMLESIGVPLEKLKFIKGTDYQLSKEYTLDVYRLSSVVTQHDSKKAGAEVVKQVEHPLLSGLLYPGLQALDEEYLKVDAQFGGIDQRKIFTFAEKYLPALGYSKRVHLMNPMVPGLTGSKMSSSEEESKIDLLDRKEDVKKKLKKAFCEPGNVENNGVLSFIKHVLFPLKSEFVILRDEKWGGNKTYTAYVDLEKDFAAEVVHPGDLKNSVEVALNKLLDPIREKFNTPALKKLASAAYPDPSKQKPMAKGPAKNSEPEEVIPSRLDIRVGKIITVEKHPDADSLYVEKIDVGEAEPRTVVSGLVQFVPKEELQDRLVVVLCNLKPQKMRGVESQGMLLCASIEGINRQVEPLDPPAGSAPGEHVFVKGYEKGQPDEELKPKKKVFEKLQADFKISEECIAQWKQTNFMTKLGSISCKSLKGGNISLEHHHHHH
modifications: C-terminal His6 tag; Human full-length TyrRS in pET20B
notes: recombinant human tyrosyl-tRNA synthetase, 528 amino acid residues, C-terminal His6 tag
B1 was tested, and the “MP chemotaxis (MP migration)” value [1] was “no chemotaxis was observed”, the “MP TNFα production” value [2] was “none of the properties observed for the carboxyl-terminal domain” and the “MP tissue factor production” value [3] was “none of the properties observed for the carboxyl-terminal domain”. For the same molecule, the “PMN release of myeloperoxidase” value [4] was “none of the properties observed for the carboxyl-terminal domain”, the “PMN chemotaxis (PMN migration)” value [5] was “none of the properties observed for the carboxyl-terminal domain” and the “inhibition of 125I-mini TyrRS binding to PMNs by unlabeled ligand” value (“inhibition of 125I-mini TyrRS binding” for short) [6] was “did not inhibit the binding”. For the same molecule, the HUVEC chemotaxis [7] was “no chemotaxis was observed”.

B2: TyrRS carboxyl-terminal domain: residues 359-528 of full-length TyrRS (protein)
chain: MPEEVIPSRLDIRVGKIITVEKHPDADSLYVEKIDVGEAEPRTVVSGLVQFVPKEELQDRLVVVLCNLKPQKMRGVESQGMLLCASIEGINRQVEPLDPPAGSAPGEHVFVKGYEKGQPDEELKPKKKVFEKLQADFKISEECIAQWKQTNFMTKLGSISCKSLKGGNISLEHHHHHH
modifications: His6 tag; Human TyrRS carboxyl-terminal domain in pET20B
notes: residues 359-528 of full-length TyrRS
B2 was tested, and the “MP chemotaxis (MP migration)” value [1] was “induced MP migration to an extent comparable with that observed for EMAP II”, the “MP TNFα production” value [2] was “stimulated production” and the “MP tissue factor production” value [3] was “stimulated production”. For the same molecule, the “PMN release of myeloperoxidase” value [4] was “induced the release of myeloperoxidase in PMNs”, the “concentration dependence of PMN migration” value [5] was “bell-shaped concentration dependence” and the “PMN chemotaxis (PMN migration)” value [5] was “induced PMN migration”. The “inhibition of 125I-mini TyrRS binding” value [6] was “neither the TyrRS carboxyl-terminal domain nor EMAP II inhibited”.

B3: E. coli TyrRS: E. coli tyrosyl-tRNA synthetase, similar in size to human mini TyrRS (protein)
chain: MASSNLIKQLQERGLVAQVTDEEALAERLAQGPIALYCGFDPTADSLHLGHLVPLLCLKRFQQAGHKPVALVGGATGLIGDPSFKAAERKLNTEETVQEWVDKIRKQVAPFLDFDCGENSAIAANNYDWFGNMNVLTFLRDIGKHFSVNQMINKEAVKQRLNREDQGISFTEFSYNLLQGYDFACLNKQYGVVLQIGGSDQWGNITSGIDLTRRLHQNQVFGLTVPLITKADGTKFGKTEGGAVWLDPKKTSPYKFYQFWINTADADVYRFLKFFTFMSIEEINALEEEDKNSGKAPRAQYVLAEQVTRLVHGEEGLQAAKRITECLFSGSLSALSEADFEQLAQDGVPMVEMEKGADLMQALVDSELQPSRGQARKTIASNAITINGEKQSDPEYFFKEEDRLFGRFTLLRRGKKNYCLICWK
In the case of B3, the “MP chemotaxis (MP migration)” value [1] is reported as “inactive in all of the assays”, the “MP TNFα production” value [2] is reported as “inactive in all of the assays” and the “MP tissue factor production” value [3] is reported as “inactive in all of the assays”. For the same molecule, the “PMN release of myeloperoxidase” value [4] was “inactive in all of the assays”, the “PMN chemotaxis (PMN migration)” value [5] was “inactive in all of the assays; also recorded: no chemotaxis was observed” and the “inhibition of 125I-mini TyrRS binding” value [6] was “did not inhibit the binding”.
